Experimental findings from patent US20220213211A1 (Memorial Sloan Kettering, published 2022) are described below.

For this experiment, the target named is T1, biotinylated recombinant CD371 (soluble CD371) (Homo sapiens (Human), UniProt Q5QGZ9 65-265, biotinylated (site not stated)).
T1 sequence: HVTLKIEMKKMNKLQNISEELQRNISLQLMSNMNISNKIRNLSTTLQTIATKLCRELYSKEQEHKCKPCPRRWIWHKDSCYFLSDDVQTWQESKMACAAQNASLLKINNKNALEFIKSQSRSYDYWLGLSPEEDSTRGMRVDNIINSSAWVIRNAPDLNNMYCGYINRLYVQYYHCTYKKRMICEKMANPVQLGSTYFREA
Description: biotinylated CD371 captured with streptavidin, soluble scFv as analyte. From the text: For scFv affinity measurements, biotinylated CD371 was captured with streptavidin, and soluble scFv was used as analyte. […] Consistent with the flow cytometry results, weak binding of the 1B10 scFv in the VH-VL orientation was observed but a dissociation constant could not be calculated by any curve fit method.

B1: B10 scFv in the VL-VH orientation (scFv)
scFv: DIVMTQSPDSLAVSLGERATINCKSSQSVLDSYNNENNLAWYQQKPGQPPKLLIYWASTRESGVPDRFSGSGSGTDFTLTISSLQAEDVAVYYCQQYTSEPITFGQGTKVEIKGGGGSGGGGSGGGSGGGGSEVQLLESGGGLVQPGGSLRLSCAASGFTFSDYQMSWVRQAPGKGLEWVSGIQGGGGSTYYADSVKGRFTISRDNSKNTLYLQMNSLRAEDTAVYYCAREMWRGDYYSGMDVWGQGTTVTVSS
notes: also called 1B10 scFv VL-VH; VL-VH scFv
Regarding B1, the Kd (usually a measure of binding affinity in units of concentration) was 0.016 µM, the koff (usually a measure of how fast the partners let go of each other) came to 0.00952 s⁻¹ and the kon (commonly a measure of how fast the partners come together) amounted to 599000 M⁻¹ s⁻¹.
